The target in data set [1] is T1, B. amyloliquefaciens subtilisin, wild type (WT, Gly166) (Bacillus amyloliquefaciens, UniProt P00782).
T1 construct: at various amino acid residues within the mature form of the subtilisin molecule; made in house; host or cells: Bacillus subtilis (secreted, culture supernatant)
T1 sequence (P00782 108-382): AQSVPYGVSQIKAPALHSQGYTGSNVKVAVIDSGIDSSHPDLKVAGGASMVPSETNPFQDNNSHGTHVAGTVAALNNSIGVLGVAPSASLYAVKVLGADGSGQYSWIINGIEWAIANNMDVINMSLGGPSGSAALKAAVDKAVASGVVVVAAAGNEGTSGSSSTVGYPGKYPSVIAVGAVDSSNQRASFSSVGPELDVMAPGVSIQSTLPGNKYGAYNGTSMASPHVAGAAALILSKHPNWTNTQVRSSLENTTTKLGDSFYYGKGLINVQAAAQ
The experiment in a line: Kinetics of hydrolysis of succinyl-Ala-Ala-Pro-X-p-nitroanilide substrates (progress curve analysis). It is filed as biochemical. The conditions noted are these: for kcat/Kmx10^-4: Table XII, Ala (wild type) at position 152, synthetic p-nitroanilide substrate with label as P-1 amino acid. From the text: A change in substrate specificity is defined as a difference between the kcat/Km ratio of the precursor carbonyl hydrolase and that of the hydrolase mutant. The kcat/Km ratio is a measure of catalytic efficienty. Carbonyl hydrolase mutants with increased or diminished kcat/Km ratios are described in the examples. Generally, the objective will be to secure a mutant having a greater (numerically large) kcat/Km ratio for a given substrate, thereby enabling the use of the enzyme to more efficiently act on a target substrate. A substantial change in kcat/Km ratio is preferably at least 2-fold increase or decrease. However, smaller increases or decreases in the ratio (e.g., at least 1.5-fold) are also considered substantial. An increase in kcat/Km ratio for one substrate may be accompanied by a reduction in kcat/Km ratio for another substrate. […] Km and kcat are measured in accord with known procedures, as described in EPO Publication No. 0130756 or as described herein.
(§1) Wild-type subtilisin was purified from B. subtilis culture supernatants expressing the B. amyloliquefaciens subtilisin gene (Wells, J.A., et al. (1983) Nucleic Acids Res. 11, 7911-7925) as previously described (Estell, D.A., et al. (1985) J. Biol. Chem. 260, 6518-6521). Details of the synthesis of tetrapeptide substrates having the form succinyl-L-AlaL-AlaL-ProL-[X]-p-nitroanilide (where X is the P1 amino acid) are described by DelMar, E.G., et al. (1979) Anal. Biochem. 99, 316-320. Kinetic parameters, Km(M) and kcat-(s-^1) were measured using a modified progress curve analysis (Estell, D.A., et al. (1985) J. Biol. Chem. 260, 6518-6521). Briefly, plots of rate versus product concentration were fit to the differential form of the rate equation using a non-linear regression algorithm. Errors in kcat and Km for all values reported are less than five percent. The various substrates in Table VIII are ranged in order of decreasing hydrophobicity. Nozaki, Y. (1971), J. Biol. Chem. 246, 2211-2217; Tanford C. (1978) Science 200, 1012).

The target of data set [2] is T2, B. amyloliquefaciens subtilisin variant S152 (Ala152 to Ser) (Bacillus amyloliquefaciens, UniProt P00782, A259S).
T2 construct: at various amino acid residues within the mature form of the subtilisin molecule; made in house
The data set is described as follows: Kinetics of p-nitroanilide substrate hydrolysis, S152. It is filed as biochemical. The conditions noted are these: Table XII, Ser (S) at position 152; synthetic p-nitroanilide substrate with label as P-1 amino acid.
Description: as §1
(§2) The wild type DNA sequence was mutated by the V152/P153 primer (Figure 20, line 4) using the above restriction-purification approach for the new Kpnl site. Other mutant primers (shaded sequences Figure 20; S152, line 5 and G152, line 6) mutated the new Kpnl site away and such mutants were isolated using the restriction-selection procedure as described above for loss of the Kpnl site.
(§3) The results of these substitutions for the above synthetic substrates containing the P-1 amino acids Phe, Leu and Ala are shown in Table XII.

Data set [3] has as its target T3, B. amyloliquefaciens subtilisin variant G152 (Ala152 to Gly) (Bacillus amyloliquefaciens, UniProt P00782, A259G).
T3 construct: made in house
The experiment in a line: Kinetics of p-nitroanilide substrate hydrolysis, G152. The conditions noted are these: Table XII, Gly (G) at position 152; synthetic p-nitroanilide substrate with label as P-1 amino acid. It is filed as biochemical.
Description: as §1, §2, §3

Substrate in data set [4]: C[C@H](NC(=O)CCC(=O)O)C(=O)N[C@@H](C)C(=O)N1CCC[C@H]1C(=O)N[C@@H](Cc1ccccc1)C(=O)Nc1ccc([N+](=O)[O-])cc1
The data set is described as follows: Kinetics of p-nitroanilide substrate hydrolysis, L217. The class given is biochemical, B. amyloliquefaciens. The conditions noted are these: other: substrate sAAPFpNa; Km in M.
Description: as §1
Tyr217 has been substituted by all other 19 amino acids. Cassette mutagenesis as described in EPO publication No. 0130756 was used according to the protocol of Figure 22. The EcoRV restriction site was used for restriction-purification of pA217.
Since this position is involved in substrate binding, mutations here effect kinetic parameters of the enzyme. […]

Substrate in data set [5]: C[C@H](NC(=O)CCC(=O)O)C(=O)N[C@@H](C)C(=O)N1CCC[C@H]1C(=O)N[C@@H](Cc1ccccc1)C(=O)Nc1ccc([N+](=O)[O-])cc1
The data set is described as follows: Kinetics of p-nitroanilide substrate hydrolysis, H104. The note with it: other: Table XI. The class given is biochemical, B. amyloliquefaciens.
Description: as §1
(§4) Tyr104 has been substituted with Ala, His, Leu, Met and Ser. The method used was a modification of the site directed mutagenesis method. According to the protocol of Figure 19, a primer (shaded in line 4) introduced a unique Hindlll site and a frame shift mutation at codon 104. Restriction-purification for the unique Hindlll site facilitated the isolation of the mutant sequence. Restriction-selection against this Hindlll site using pimers in line 5 was used to obtain position 104 mutants.
(§5) The substrates in Table XI were used to analyze the substrate specificity of these mutants.

Substrate in data set [6]: C[C@H](NC(=O)[C@@H]1CCCN1C(=O)[C@H](C)NC(=O)[C@H](Cc1ccccc1)NC(=O)CCC(=O)O)C(=O)Nc1ccc([N+](=O)[O-])cc1
The data set is described as above. It is filed as biochemical, B. amyloliquefaciens. The note with it: other: Table XI.
Description: as §1, §4, §5

Substrate in data set [7]: C[C@H](NC(=O)[C@H](Cc1ccccc1)NC(=O)CCC(=O)O)C(=O)N1CCC[C@H]1C(=O)N[C@@H](Cc1ccccc1)C(=O)Nc1ccc([N+](=O)[O-])cc1
The description is as above. The class given is biochemical, B. amyloliquefaciens. The note with it: other: Table XI.
Description: as §1, §4, §5

Substrate in data set [8]: C[C@H](NC(=O)CCC(=O)O)C(=O)N[C@@H](C)C(=O)N1CCC[C@H]1C(=O)N[C@@H](C)C(=O)Nc1ccc([N+](=O)[O-])cc1
The description is as above. It is filed as biochemical, B. amyloliquefaciens. The note with it: other: Table XI.
Description: as §1, §4, §5

Substrate in data set [9]: C[C@H](NC(=O)CCC(=O)O)C(=O)N[C@@H](C)C(=O)N1CCC[C@H]1C(=O)N[C@@H](Cc1ccccc1)C(=O)Nc1ccc([N+](=O)[O-])cc1
The experiment in a line: Kinetics of p-nitroanilide substrate hydrolysis, K166/A222. The class given is biochemical, B. amyloliquefaciens. The conditions noted are these: other: Table XIX.
Description: as §1, with “1012). […]” for “1012).”

Substrate in data set [10]: C[C@H](NC(=O)CCC(=O)O)C(=O)N[C@@H](C)C(=O)N1CCC[C@H]1C(=O)N[C@@H](Cc1ccccc1)C(=O)Nc1ccc([N+](=O)[O-])cc1
The data set is described as follows: Kinetics of p-nitroanilide substrate hydrolysis, A222. The conditions noted are these: other: Table XIX. The class given is biochemical, B. amyloliquefaciens.
Description: as §1
Although mutations at position 222 improve oxidation stability they also tend to increase the Km. In this case the A222 mutation was combined with the K166 mutation to give an enzyme with kcat and Km intermediate between the two parent enzymes.

The mark [11] stands for this setting: Table VIII, substrate succinyl-L-AlaL-AlaL-ProL-[X]-p-nitroanilide, X = label (P1 amino acid).

*1 amine or outer side, *2 acyl side, *3 side chain or, on linkers, in order; H or OH if unused. Where a SMILES comes first, the peptide text is derived from it. The star is where a group is joined. pNA = O=[N+]([O-])c1ccc(N*)cc1; Suc = O=C(CCC(=O)[*:2])[*:1]

T2 sequence (P00782 108-382 A259S): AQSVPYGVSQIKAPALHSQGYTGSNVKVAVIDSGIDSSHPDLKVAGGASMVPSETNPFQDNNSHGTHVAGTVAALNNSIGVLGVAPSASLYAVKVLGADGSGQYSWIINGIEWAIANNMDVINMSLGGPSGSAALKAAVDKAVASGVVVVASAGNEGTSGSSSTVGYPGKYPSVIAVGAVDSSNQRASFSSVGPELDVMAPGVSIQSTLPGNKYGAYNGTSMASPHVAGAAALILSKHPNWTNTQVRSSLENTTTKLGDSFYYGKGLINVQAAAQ
T3 sequence (P00782 108-382 A259G): as the sequence (P00782 108-382 A259S) above, with S152G counted along it

With `C[C@H](NC(=O)CCC(=O)O)C(=O)N[C@@H](C)C(=O)N1CCC[C@H]1C(=O)N[C@@H](CCC(=O)O)C(=O)Nc1ccc([N+](=O)[O-])cc1` [Glu] (Suc-AAPE-pNA), in data set [1] (setting [11]), the kcat worked out at 0.54 S^-1.
On to `CC(C)C[C@H](NC(=O)[C@@H]1CCCN1C(=O)[C@H](C)NC(=O)[C@H](C)NC(=O)CCC(=O)O)C(=O)Nc1ccc([N+](=O)[O-])cc1` [Leu] (Suc-AAPL-pNA), for which the “kcat/Kmx10^-4” value is recorded as 10.0 in data set [1], 0.5 in data set [2] and 0.4 in data set [3].
For the molecule `C[C@H](NC(=O)CCC(=O)O)C(=O)N[C@@H](C)C(=O)N1CCC[C@H]1C(=O)N[C@@H](Cc1ccccc1)C(=O)Nc1ccc([N+](=O)[O-])cc1` [Phe] (Suc-AAPF-pNA), the kcat is on record as 50 S^-1 in data set [1] (setting [11]) and 50.00 s-^1 in [1] (Table XIII, Glu156/Gly166 (WT), synthetic substrate with label as P-1 residue). The “kcat/Kmx10^-4” value came to 40.0 in data set [1], 1.0 in data set [2] and 0.2 in data set [3].
As for `C[C@H](NC(=O)CCC(=O)O)C(=O)N[C@@H](C)C(=O)N1CCC[C@H]1C(=O)N[C@@H](C)C(=O)Nc1ccc([N+](=O)[O-])cc1` [Ala] (Suc-AAPA-pNA), the “kcat/Kmx10^-4” value in data set [1] is reported as 1.0; in data set [2], 0.2; in data set [3] it was less than 0.04.

B1: B. amyloliquefaciens subtilisin variant L217 (Tyr217 to Leu) (Bacillus amyloliquefaciens; Y324L) (protein)
chain: AQSVPYGVSQIKAPALHSQGYTGSNVKVAVIDSGIDSSHPDLKVAGGASMVPSETNPFQDNNSHGTHVAGTVAALNNSIGVLGVAPSASLYAVKVLGADGSGQYSWIINGIEWAIANNMDVINMSLGGPSGSAALKAAVDKAVASGVVVVAAAGNEGTSGSSSTVGYPGKYPSVIAVGAVDSSNQRASFSSVGPELDVMAPGVSIQSTLPGNKYGALNGTSMASPHVAGAAALILSKHPNWTNTQVRSSLENTTTKLGDSFYYGKGLINVQAAAQ
notes: at various amino acid residues within the mature form of the subtilisin molecule; made in house
For B1, the Km in [4] was found to be 470 µM.

B2: B. amyloliquefaciens subtilisin variant H104 (Tyr104 to His) (Bacillus amyloliquefaciens; Y211H) (protein)
chain: AQSVPYGVSQIKAPALHSQGYTGSNVKVAVIDSGIDSSHPDLKVAGGASMVPSETNPFQDNNSHGTHVAGTVAALNNSIGVLGVAPSASLYAVKVLGADGSGQHSWIINGIEWAIANNMDVINMSLGGPSGSAALKAAVDKAVASGVVVVAAAGNEGTSGSSSTVGYPGKYPSVIAVGAVDSSNQRASFSSVGPELDVMAPGVSIQSTLPGNKYGAYNGTSMASPHVAGAAALILSKHPNWTNTQVRSSLENTTTKLGDSFYYGKGLINVQAAAQ
notes: as for B1
B2: the Km amounted to 710 µM in data set [5], 150 µM in data set [6], 410 µM in [7] and 1900 µM in data set [8]. Moreover, the kcat in data set [5] worked out at 22.0 s-^1; in data set [6] it was 2.4 s-^1; in [7], 38.0 s-^1; in data set [8], 2.0 s-^1. Besides, the kcat/Km in data set [5] was determined as 31000 M⁻¹ s⁻¹; in [6], 16000 M⁻¹ s⁻¹; in data set [7] it was 91000 M⁻¹ s⁻¹; in data set [8], 1000 M⁻¹ s⁻¹.

B3: B. amyloliquefaciens subtilisin variant K166/A222 (Bacillus amyloliquefaciens; G273K/M329A) (protein)
chain: AQSVPYGVSQIKAPALHSQGYTGSNVKVAVIDSGIDSSHPDLKVAGGASMVPSETNPFQDNNSHGTHVAGTVAALNNSIGVLGVAPSASLYAVKVLGADGSGQYSWIINGIEWAIANNMDVINMSLGGPSGSAALKAAVDKAVASGVVVVAAAGNEGTSGSSSTVKYPGKYPSVIAVGAVDSSNQRASFSSVGPELDVMAPGVSIQSTLPGNKYGAYNGTSAASPHVAGAAALILSKHPNWTNTQVRSSLENTTTKLGDSFYYGKGLINVQAAAQ
notes: as for B1
Regarding B3, in data set [9], the Km was 200 µM and the kcat is recorded as 29 s-^1.

B4: B. amyloliquefaciens subtilisin variant A222 (Met222 to Ala) (Bacillus amyloliquefaciens; M329A) (protein)
chain: AQSVPYGVSQIKAPALHSQGYTGSNVKVAVIDSGIDSSHPDLKVAGGASMVPSETNPFQDNNSHGTHVAGTVAALNNSIGVLGVAPSASLYAVKVLGADGSGQYSWIINGIEWAIANNMDVINMSLGGPSGSAALKAAVDKAVASGVVVVAAAGNEGTSGSSSTVGYPGKYPSVIAVGAVDSSNQRASFSSVGPELDVMAPGVSIQSTLPGNKYGAYNGTSAASPHVAGAAALILSKHPNWTNTQVRSSLENTTTKLGDSFYYGKGLINVQAAAQ
notes: as for B1
Regarding B4, in [10], the Km came out at 990 µM and the kcat was 42 s-^1.

The record behind these values is patent EP0251446B1, “Non-human Carbonyl hydrolase mutants, DNA sequences and vectors encoding same and hosts transformed with said vectors” (GENENCOR INTERNATIONAL, INC., priority 1986, dated 1988).
